# Data from PMC12431652.
# Target: Tripartite Motif Protein 28 (TRIM28), endogenous in HEK293T cells (UniProt Q13263)
# Test: co-immunoprecipitation (anti-FLAG IP, western blot band quantification)
# Details: for percent of parent (rel. (PIV2-V = 100)): HEK293T cells transfected for 24 hours, n = 3, parent: 100, read off a plot
# Chain of UniProt Q13263 (Q13263 whole entry): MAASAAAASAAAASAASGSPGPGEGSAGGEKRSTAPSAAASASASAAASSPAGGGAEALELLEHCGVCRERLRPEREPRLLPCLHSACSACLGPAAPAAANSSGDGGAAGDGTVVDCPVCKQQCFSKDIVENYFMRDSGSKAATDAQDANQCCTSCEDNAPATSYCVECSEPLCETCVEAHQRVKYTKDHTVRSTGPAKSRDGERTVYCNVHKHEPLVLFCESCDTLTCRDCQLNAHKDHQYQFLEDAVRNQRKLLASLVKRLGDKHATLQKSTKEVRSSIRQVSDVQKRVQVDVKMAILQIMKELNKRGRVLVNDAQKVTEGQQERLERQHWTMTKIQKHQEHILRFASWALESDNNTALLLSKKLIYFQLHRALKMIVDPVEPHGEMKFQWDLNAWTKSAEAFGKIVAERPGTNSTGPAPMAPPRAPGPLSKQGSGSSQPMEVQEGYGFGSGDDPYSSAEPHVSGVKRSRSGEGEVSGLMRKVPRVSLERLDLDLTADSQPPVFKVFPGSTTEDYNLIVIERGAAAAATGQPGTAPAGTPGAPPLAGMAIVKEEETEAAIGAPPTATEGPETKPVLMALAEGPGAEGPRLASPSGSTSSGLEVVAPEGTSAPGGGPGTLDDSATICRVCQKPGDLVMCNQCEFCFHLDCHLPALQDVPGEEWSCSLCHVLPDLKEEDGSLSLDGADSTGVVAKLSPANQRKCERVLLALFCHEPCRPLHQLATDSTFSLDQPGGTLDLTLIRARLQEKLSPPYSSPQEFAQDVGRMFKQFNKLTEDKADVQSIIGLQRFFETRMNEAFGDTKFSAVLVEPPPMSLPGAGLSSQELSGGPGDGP
Substance,"percent of parent (rel. (PIV5-V = 100)) (n = 3, parent: 100, read off a plot)",percent of parent (rel. (PIV2-V = 100))
FLAG-tagged full-length PIV5-V (pCMV7.1_3xFlag) (from UniProt P11207) Y175W,310,–
FLAG-tagged full-length PIV2-V (pCMV7.1_3xFlag) (from UniProt P19847) Q186E,–,130
FLAG-tagged full-length PIV2-V (pCMV7.1_3xFlag) (from UniProt P19847) F190T,–,130
FLAG-tagged full-length PIV2-V (pCMV7.1_3xFlag) (from UniProt P19847) A181G,–,110
FLAG-tagged full-length PIV2-V (pCMV7.1_3xFlag) (from UniProt P19847) W178Y,–,50
